Source: patent US20240218057A1 (ROCKEFELLER UNIVERSITY, published 2024)
Residue numbers refer to the chain shown, from its start.

B1: C900 (antibody, V domains shown)
VH: QVQLQESGPGLVKPSGTLSLTCTVSGGSINSRNWWSWVRQPPGKGLEWIGEIFHSGSTNYNPSLESRVAISIDKSHNHFSLKLTSVTAADTAVYYCARANGILDFWGQGTLVTVSS
VL: DIQMTQSPSSLSASVGDRVTITCRASQGISNSLAWYQLKPGKAPKLLLYAASTLESGVPSRFSGSGSGTNFTLTISSLQPEDFASYCCQHYYSSPRTFGQGTKVEI
notes: IgG; V domains only
B2: C901 (antibody, V domains shown)
VH: QVQLVESGGGVVQPGRSLRIACGASGFTFSTYDMHWVRQAPVKGLEWVAVISRDGSGKFYADSVKGRFTISRDNSKKTLYLQMDSLRPEDTAMYYCARDFESRTWDPPKYYYALDVWGQGTTVTVSS
VL: DIQMTQSPSSLSASVGDRVTITCRASQSISTYLNWYQQKPGKAPSLLIYAASSLYSGVPSRFSGSGSGTDFSLTISSLQPEDFATYYCQQTYTTPTWTFGQGTKVEIK
notes: IgG; V domains only
B3: C902 (antibody, V domains shown)
VH: EVQLVQSGAEVKKPGESLRISCKGSGYSFHTYWIHWVRQMPGKGLEWMGKIDPSDSYTNYSPSFQGHVTFSADRSISTAYLQWSSLKASDTATYYCARLSWSPPTRTTDEKNWFDPWGQGTLVTVSS
VL: DIQLTQSPSFLAASAGDRVTITCRASQGISSYLAWYQQKPGKAPKVLIYAASTLQSGVPSRFSGSGSGTEFTLTISSLQPEDCATYYCQQFNSDPLTFGGGTKVEIK
notes: IgG; V domains only
B4: C952 (antibody, V domains shown)
VH: EVQLVQSGAEVKKPGESLTISCKDSGNSFTIYWIGWVRQMPGKGLEWMGMIYPGDSGTRYSPSFEGQVTISADESINTAYLQWRSLKASDTAMYYCVRGIAVDWYFDLWGRGTLVTVSS
VL: QSVLTQPPSVSGAPGQRVTISCTGSSSNIGAGFDVHWYQQLPGTAPKLLIYGNNNRPSGVPDRFSGSKSATSASLAITGLQAEDEADYYCQSSDSSLSGLYVFGTGTNVIV
notes: IgG; V domains only
B5: C986 (antibody, V domains shown)
VH: EVQLVQSGAEVKKPGETLKISCKGSGDSFSNYWIGWVRQSPGKGLEWMAIVYPGDSDARYSPSFQGQVTISADKSVTTAYLKWSSLKASDTAIYYCVRGLPVDWYFDLWGRGTLVTVSS
VL: QSVLTQPPSVSGAPEQRVTISCTGSSSNIGAGHDVHWYQQLPGTAPKLLIYNNNNRPSGVPDRFSGSKSGASASLAISGLQAEDEAEYYCQSYDKSLSVLYVLGTGTKVTV
notes: IgG; V domains only
B6: C953 (antibody, V domains shown)
VH: QVQLVQSGAEVKKPGSSVKVSCKASGGTFSSYAISWVRQAPGQGLEWMGRIIPILGIANYAQKFQGRVTITADKSTSTAYMELSSLRSEDTAVYYCARDSEYSSSWYSRGYYGMDVWGQGTTVTVSS
VL: not shown
notes: IgG; V domains only
B7: C954 (antibody, V domains shown)
VH: QVQLVQSGAEVKKPGSSVKVSCKASGDTFTNYAFSWMRQAPGQGLEWMGRIIPILGIVKYSQKFQDRVRISADKSTSTAYMDLSSLRSEDTAMYYCARDSEFSTSWFSRGYHGMDVWGQGTTVTVSS
VL: DIVMTQSPLSLPVTPGEPASISCRSSQSLLHGDGYNYLDWYLQKPGQSPHLLIYLGSNRTSGVSDRFSGSGSGTDFTLKISRVEAEDVGVYYCMQALQTPPTFGGGTKVEIK
notes: IgG; V domains only
B8: C955 (antibody, V domains shown)
VH: QVQLQQWGAGLLKPSETLSLTCAVYGGTFSGYSWTWIRQPPGKGLDWIGEINHSGSTNYNPSLKSRVTISVDTSKNQFSLKLSSVTAADTAVYYCARAGFGFVITSRSGTDPLFDYWGQGTLVTVSS
VL: QSVLTQPPSVSGAPGQRVTISCTGSSSNIGAGYDVHWYQQLPGTAPKVLIYGNNNRPSGVPDRFSGSKSGTSASLAITGLQAEDEADYYCQSYDTSLSGSRVFGGGTKLTVL
notes: IgG; V domains only
B9: C956 (antibody, V domains shown)
VH: EVQLVESGGGLVQPGRSLRLSCTGSEFTFGDFSMSWFRQAPGKGLEWVGFIRRKADGGTTEYAASVRGRFTISRDDSKSIAYLVMNSLKSEDTAVYYCTRAWIPTPHDYWGQGVLVTVSS
VL: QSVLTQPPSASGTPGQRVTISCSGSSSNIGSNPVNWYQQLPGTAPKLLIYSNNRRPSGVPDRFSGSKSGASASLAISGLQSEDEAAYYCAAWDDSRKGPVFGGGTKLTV
notes: IgG; V domains only
B10: C957 (antibody, V domains shown)
VH: B9 VH with G24A, E26G, G30A, S35T, K54E, S79G, V84L, V95M, T99S, V114T
VL: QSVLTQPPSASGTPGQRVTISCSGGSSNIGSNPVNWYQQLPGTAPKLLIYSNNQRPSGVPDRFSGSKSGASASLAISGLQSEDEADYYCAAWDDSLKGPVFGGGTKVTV
notes: IgG; V domains only
B11: C959 (antibody, V domains shown)
VH: QVQLQESGPGLVKPSETLSLNCNVSGGSISNYYWSWIRQPPGKGLEWIGFISYSGSTDYNPSLKSRVIISIDTSKKHFSLNLSSVTAADTAVYFCARHYDILTALSWFDPWGQGTLVTVSS
VL: QSVLTQPPSVSAAPGQTVTISCSGSSSNIRNNFVSWYQQFPGTAPKLLIYDNNKRPSGIPDRFSGSKSGTSATLGITGLQTGDEADYYCGTWDSSPSACWVFGAGTKLTV
notes: IgG; V domains only
B12: C960 (antibody, V domains shown)
VH: QVQLVESGGGVVQPGRSLTLSCTASGFTFNRFAMFWVRQAPGKGLEWVAVISFDGSYEHYAESVKGRFAIFRDNPKNTLYLQMNSLRAEDTAVYYCAKSPINYCANGVCYPDSWGQGTLVTVSS
VL: NFMLTQPHSVSESPGKTVTISCTGSSGSIANNYVQWYQQRPGSAPTTVIFEDTQRPSGVPDRFSGSIDSSSNSASLNISGLKPEDEADYYCQSFDVNSRWVFGGGTKLTVL
notes: IgG; V domains only
B13: C962 (antibody, V domains shown)
VH: EVQLVESGGGLVQPGGSLRLSCTASRLTVSSNYMNWVRQAPGKGLEWVSVIYAGGSTFYADSVKDRFTISRDNSMNTLYLQMNSLRVEDTAVYYCARLGGYRYGMDVWGQGTTVTV
VL: DIQMTQSPSSLSASVGDRVTITCQASQDISNYLNWYQQSPGKAPKLLIYDASKLETGVPSRFSGSGSGTDFTFTISSLQPEDIATYYCLQYDNLPYSFGQGTKLEI
notes: IgG; V domains only
B14: C967 (antibody, V domains shown)
VH: QVQLVESGGGVVQPGRSLRLSCAASGFTFRIYAMHWVRQAPGKGLEWVAIIWNDGSKQYYADSMKGRFTISRDNSKNTLYLQMNSLRDEDTALYYCAREGVALAGNGVDGFDIWGQGTMVTVSS
VL: DIQMTQSPSSLSASVGDRVTITCRASQTISTFLNWYRQIPGKAPKLLIYAASSLQSGVPSRFSGSGSGTDFTLTISSLQPEDFATYYCQQTYSTPYTFGRGTKLEIK
notes: IgG; V domains only
B15: C968 (antibody, V domains shown)
VH: QVQLVESGGGVVQPGRSLRLSCAASGFTFRIYAMHWVRQAPGKGLEWVAIIWNDGNKKDYVDSVKGRFTISRDNSRNTVYLQMNSLRVDEDTAVYYCAREGVAVGGNGVDGFDMWGQGTMVTVSS
VL: DIQMTQSPSSLSSSVGDRVTITCRASQSIGIYLNWYQQKPGKVPNLLIYAASTLQTGAPSRFSGSGSGTDFILSISSLQPEDFATYYCQQTYSVPYTFGQGTKLEIK
notes: IgG; V domains only
B16: C969 (antibody, V domains shown)
VH: QVQLQESGPGLVKPSETLSLTCTVSGGSISSYYWSWIRQPPGKGLEWIGYIYYSGSTNYNPSLKSRVTISVDTSKNQFSLKLSSVTAADTAVYYCARLLSTEWLFNWFDPWGQGTLVTVSS
VL: not shown
notes: IgG; V domains only
B17: C987 (antibody, V domains shown)
VH: QVQLQESGPGLVKPSETLSLTCNVSGDIINKYYWSWIRQSPGKGLEWIGYIYYSGTTYYNPSLKSRVTMSVGTSKQQFSLRLTSVTAADTAVYYCARMLSTEWSFNWFDPWGPGTLVTVSS
VL: SYELTQPPSVSVSPGQAASITCSGDKLGDKFACWYQQKPGQSPVLVIYQNDKRPTGIPERFSGSNSGNTATLTISGTQAMDEADYFCQAWDSTSASVFGTGTKVTVL
notes: IgG; V domains only
B18: C989 (antibody, V domains shown)
VH: QVQLVQSGPEVKKPGSSVKVSCKASGGNFNSYTITWVRQAPGHGLEWMGRIIPTLGVANYALNFQDRITITADKSTSTAYMDLSSLRSEDTAVYYCARETGYSGFLAVAYMDVWGNGTTVTVSS
VL: QSVLTQPPSVSGAPGQRVTISCTGSSSNVGAGYDVHWYQQLPGTAPKLLIYRNNNRPSGVPDRFSGSKSGSSASLDITGLQAEDEADYYCQSYDSSLSDSVFGGGTKLTV
notes: IgG; V domains only
B19: C975 (antibody, V domains shown)
VH: EVQLVESGGDLTQPGGSLRLSCAASGFTFSSYDMHWVRQATGKGLEWVSGIGTSGDTYYADSVKGRFTISRENAKNSLFLQMNNLRAGDTATYYCARTEYAWGSYRSYWYFDLWGRGTLVTVSS
VL: DIQMTQSPSSLSASVGDRVTITCRTSQTISTYLNWYQQKPGKAPKVLIYAASSLQSGVPSRFSGSGSGTDFTLTISSLQPEDFATYFCQQSYSAPPWTFGPGTKVEIK
notes: IgG; V domains only
B20: C990 (antibody, V domains shown)
VH: EVQLVESGGGLVRPGGSLRLSCAASGFTVGSNFMSWVRQAPGKGLEWVSLIYSGGGTHYAESVKGRFTISRDKSKNTLYLQMNSLRAEDTAVYYCANQGYYYYMDVWGKGTTVTVS
VL: QSALTQPASVSGSPGQSITISCTGTSSDVGAYNYVSWHQHHPGKAPKLIIYDVSNRPSGVSNRFSGSKSGNTASLTISGLQAEDEADYYCTSYTNTTTPWVFGGGTKLTVL
notes: IgG; V domains only
B21: C992 (antibody, V domains shown)
VH: QVQLQESGPGLVKPSQTLSLTCTVSGGSISNGGYFWTWIRQHPVKGLEWIGYIYYSGSPHYNPSLKSRLSISLDTFKNQFSLNLSSVTAADTAVYYCARGDTFGRGYYFDFWGQGTLVTVSS
VL: SYELTQPPSVSVAPGQTARITCGGNNIGTNSMHWYQQKPGQAPVLVVFDDSDRPSGIPERFSGSNSGNTATLTISRVEAGDEADYHCQVWDRSSDRPWVFGGGTKLTVL
notes: IgG; V domains only
B22: C958 (antibody, V domains shown)
VH: EVQLVQSGAEVKKPGDSLKISCKGSGYSFISHWIAWVRQKPGKGLEWMGIIHPGDSDTRYSPSIQGQVTISADRFITTAYLQWSSLQASDTAMYYCARRGSSWEIDHWGQGTLVTVSS
VL: QSVLTQPPSASGTPGQRVTISCSGSSSNIGSYTVNWYHQVPGTAPKVLIYGNTQRPSGVPDRFSGSKSGTSASLAISGLQSEDEGDYYCAAWDDSLDGWMFGGGTTLTVL
notes: IgG; V domains only
B23: C963 (antibody, V domains shown)
VH: QVQLVQSGAEVKKPGSSVRVSCKASGGTFSSFTITWVRQAPGQGLEWMGRIIPNLNIPNYAQRFQGRITITAEKSTSTAYLELSSLRSEDTAVYYCARGVGYSGSGSNWYFDLWGRGTLVTVSS
VL: B18 VL with V29I, Y51S, R52G, N53H, N54I, K68T, S71T, D76A
notes: IgG; V domains only

These binders were tested against T1, SARS-COV-2 RBD (SARS-COV-2, UniProt P0DTC2 319-539) (assay: ELISA, RBD coated).
T1 construct: also called WT RBD

| Binder | EC50 [ng/mL] |
| --- | --- |
| B1 | 2.54 |
| B2 | 2.01 |
| B3 | 3.39 |
| B4 | 2.4 |
| B5 | 3.36 |
| B6 | 4.09 |
| B7 | 1.48 |
| B8 | 2.44 |
| B9 | 1.58 |
| B10 | 1.93 |
| B11 | 4.58 |
| B12 | 1.62 |
| B13 | 1.74 |
| B14 | 3.58 |
| B15 | 3.19 |
| B16 | 3.49 |
| B17 | 3.11 |
| B18 | 4.12 |
| B19 | 2.88 |
| B20 | 1.92 |
| B21 | 3.24 |
| B22 | 4.02 |
| B23 | 2.96 |
